Columns and labels:
Assay in all cases: purified protein, by the assay type
Details in all cases: pH 7.5; 25.0 °C
[1] = system: C/C=C/C=C/C=C/C[C@@H](C)CC/C=C(\C)C(O)=C1C(=O)C(CO)N(C)C1=O
[2] = system: C/C=C/C=C/C=C/C[C@H](C)CC/C=C(\C)C(O)=C1C(=O)C(CO)N(C)C1=O
[3] = substrate: C/C=C/C=C/C=C/C[C@@H](C)CC/C=C(\C)C(O)=C1C(=O)C(CO)N(C)C1=O; remark: listed apart in the source

Molecule | Km [1] [µM] | kcat [1] [s⁻¹] | kcat/Km [1] [M⁻¹ s⁻¹] | Km [2] [µM] | kcat [2] [s⁻¹] | kcat/Km [2] [M⁻¹ s⁻¹] | Km [3] [µM] | kcat [3] [s⁻¹] | kcat/Km [3] [M⁻¹ s⁻¹]
Fsa2 (Fusarium sp. FN080326) | 25.07 ± 2.98 | 1.01 ± 0.048 | 40200 | 18.07 ± 4.21 | 84.2 ± 6.58 | 4.67e+06 |  |  | 
Phm7 (Pyrenochaetopsis sp.) (protein) MSEPTSSSSLDITSNCIIETPLQPSDFLPKSANLFPKFPERISVDSWELWEFDTFDTNGSVAFGCSLYRDARGVEQGGFHAEVNALWPDGTHWGETLYFAVSEVVENSDGTTGGKWLSKDGGSITFHIASDYTAAALDFNVPGKVSGTMELRNHANVSPTSNLPASDAEAQLCPGVYYTFPMGPVATSVTATFSSVGANGESRELFISSGYGGMVRGWSARPWPTFMNDAYYVVAQVGPYMLQILRTLGSVFVQHKPFAVARLYLDGSLVSAANTVVGDELTAHADDVKGDAVRLTKVQPDEKSQGLSGKFRDGNVGYVLEFAKKDSEHGWTFQISHKRAVWSEPTSAPGPDGTGKSGWIEAISGGAKGENYEGHGFGGQLQIPVP |  |  |  |  |  |  | 38.21 ± 8.23 | 1.98 | 51800
